# Reference: publication PMC3496063 (Structure (London, England : 1993), 2012)
# B1: His6-Plk4 PB1-PB2 (domain or fragment, D. melanogaster, UniProt O97143 382-602, looked up)
# chain: DRISVPPLNTKRLLPTRYKTKNAIMSILRNGEVVLEFLKFRPTYNEDRINDICRISDDGQRIIIYQPDPGRGLPVREQPPDLQIPSGDCVYNYDNLPSKHWKKYIYGARFVGLVKSKTPKVTYFSTLGKCQLMETMTDFEIRFYSGAKLLKTPSEGLKVYDRNGMLLSDYSCSESRSLIEHGNECFTHCVNISNALEVAQTKDNSCFPVTIGRRPITDVQP
# Target: the molecule itself
# Test: SEC-MALS
protein,measurement,value
B1,stoichiometry N,2
